The record followed here is patent US20220185844A1, “PEPTIDE-DERIVED THERAPEUTICS TARGETING SET8 FOR THE TREATMENT OF CANCER” (NUVOBIO CORPORATION, priority 2019, published 2022).

Values joined by “and” are separate entries in the source; they are usually repeats but may differ in a detail not shown here. Equal values may be shown once. Where a SMILES comes first, the peptide text is derived from it. Where no end group is shown, it is not given here. [ ]: non-standard residue; d: D form. Nle = CCCC[C@H](N)C(=O)O; Ahx = NCCCCCC(=O)O

By IC50 is commonly meant the concentration that inhibits the measured activity by half. In general, Kd refers to a measure of binding affinity in units of concentration.

Data set [1] relates to HCT 116 cells. The data set is described as follows: Cell viability assay (Resazurin reduction). Format: cell-based. The protocol:
Cell viability was measured using the Resazurin reduction assay which indirectly quantifies living cells through the metabolically active reduction of resazurin to fluorescent resorufin. This assay allows to maintain cells viability and, therefore, to monitor cell growth with time. Exponentially growing HCT 116 cells were seeded into 96-well plates at the density of 2.0×10^4 cells/mL and incubated overnight. The media was replaced with fresh media prior to inhibitor treatment. Cells were treated with 10 μM of inhibitor peptide for 24 hr. All the inhibitors were diluted in the cell culture media (DMEM−/−) from 5 mM stock. All the treated cells were compared to the control (no treatment with equivalent quantity of DMSO) which were considered as 100% viable. One set of wells also prepared with medium only for background subtracting and instrument gain adjustment. The experiments were carried out in triplicate and expressed as mean+−SD. A 10% resazurin solution (0.15 mg/ml stock dissolved in PBS, filter sterilized and stored protected from light at 4° C.) was then added to each well and incubated for 2 hr. The fluorescence was recorded using a multiwell plate reader (Perkin Elmer) at Ex. 560 nm and Em. 610 nm.
Briefly cells were treated with different concentrations of inhibitor for 24 hr ranging from […]. The working dilutions of all the inhibitors were prepared in DMEM−/− media. […]
In general terms: The colour change of resazurin is a common sign of viable cells or microbes.

Data set [2] relates to H4K20 mono-methylation in HCT 116 cells. The data set is described as follows: Histone H4K20 mono-methylation western blot in treated cells. Format: cell-based. The settings on record: HCT 116, 24 hr post dosing, 0-10 nM. The protocol:
The topmost inhibitor, KBL9-TAT, from all the above experiments were tested for histone methylation status in HCT 116 cells. 3×10^6 cells were plated in 10 cm dish and incubated overnight. Cells were then treated with the inhibitors at various concentrations (0, 0.5, 1, 2, 5, 10 nM). Cells (5×10^6 cells/mL), 24 hr of post dosing, were collected in 15 mL falcon tube and centrifuged at 300×g for 10 min. The supernatant was discarded and the cells are washed with iced cold PBS. The cell pellet is flash-frozen in liquid nitrogen and stored at −80° C. Histone isolation is done using standard protocol. To summarize, cells were re-suspended in 1 mL hypotonic lysis buffer (10 mM Tris-HCl pH 8, 1 mM KCl, 1.5 mM MgCl2 and 1 mM DTT) containing protease inhibitor. The cells were transferred to 1.5 mL tube and incubated for 30 min on rotor at 4° C. to promote hypotonic swelling and lysis. The intact nuclei are collected by centrifugation at 10,000×g for 10 min in a cooled tabletop centrifuge. […]
For western blot, of total of […] of histones were separated on 15% SDS-PAGE and transferred overnight at 15V on PVDF membrane. […] Histone proteins were detected by Supersignal™ West Pico PLUS Chemiluminescent substrate (ThermoFisher Scientific) using the Chemidoc XRS+imaging system (BioRad).
(Immunoblotting shows a protein as a band on a membrane.)

Data set [3] has as its system HCT 116 cells. The data set is described as follows: Chemosensitivity to doxorubicin (Resazurin reduction). The format is cell-based. To be noted: HCT 116 pre-treated with 2 uM for 24 hrs, dox 16 hrs, normalized to TAT-alone. The protocol: Inhibitor-induced sensitivity of HCT 116 cells to a chemotherapeutic agent, namely doxorubicin (dox), was measured using the Resazurin reduction assay. This assay allows to maintain cells viability and, therefore, to monitor cell growth with time. Exponentially growing HCT 116 cells were seeded into 96-well plates at the density of 2.0×10^4 cells/mL and incubated overnight. The media was replaced with fresh media prior to inhibitor treatment. Cells were pre-treated with 2 μM of inhibitor peptide for 24 hr. Peptide was diluted in the cell culture media (DMEM−/−) from 5 mM stock. All the treated cells were compared to the control (TAT peptide alone with equivalent quantity of DMSO) which were considered as 100% viable. One set of wells also prepared with medium only for background subtracting and instrument gain adjustment. Following 24 hr peptide treatment, dilutions of dox were added to cells (0, 0.001, 0.002, 0.01, 0.02, 0.1, 0.2, 1, 2 uM) and incubated for 16 hrs. The experiments were carried out in quadruplicate and expressed as mean+−SD. A 10% resazurin solution (0.15 mg/ml stock dissolved in PBS, filter sterilized and stored protected from light at 4° C.) was then added to each well and incubated for 2 hr. The fluorescence was recorded using a multiwell plate reader (Perkin Elmer) at Ex. 560 nm and Em. 610 nm.

Data set [4] concerns HCT 116 cells. The data set is described as follows: Flow cytometry of BrdU incorporation (DNA replication). Format: cell-based. To be noted: HCT 116, 24 hr, 2 and 5 μM. A general note: In flow cytometry, cells or beads pass a laser one at a time.
The next data set has as its target T1, Set8 (Homo sapiens, UniProt Q9NQR1).
T1 construct: made in house; host or cells: Escherichia coli BL21 (DE3) RP
T1 sequence (Q9NQR1 191-352 isoform Q9NQR1-2): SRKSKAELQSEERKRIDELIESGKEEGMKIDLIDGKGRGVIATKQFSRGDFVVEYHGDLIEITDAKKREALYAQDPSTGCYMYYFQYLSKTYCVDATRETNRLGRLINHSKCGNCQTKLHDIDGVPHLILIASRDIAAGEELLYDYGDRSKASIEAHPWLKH
The data set is described as follows: In vitro lysine methyltransferase (KMT) activity inhibition assay (Methyltransferase-Glo). The format is biochemical.

In data set [5] the target is T2, Recombinant Set8-His6x, pHIS2 Set8(191-352) (Homo sapiens (Human), UniProt Q9NQR1 191-352).
T2 sequence: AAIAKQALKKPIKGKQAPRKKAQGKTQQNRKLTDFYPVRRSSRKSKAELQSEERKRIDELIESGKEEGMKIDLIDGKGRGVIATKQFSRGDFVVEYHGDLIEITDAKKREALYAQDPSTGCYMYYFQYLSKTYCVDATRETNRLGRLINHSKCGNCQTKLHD
The data set is described as follows: cell-based or functional assay.

In data set [6] the target is T2, Recombinant Set8-His6x, pHIS2 …. The data set is described as follows: DSF thermal shift, 125 µM peptide with 20 µM Set8, SYPRO Orange; DMSO control 71.5 ± 1.1.
Description: Thermal unfolding of target protein was monitored with inhibitor peptide using DSF. Optimal conditions were achieved using buffer containing 150 mM KH₂PO₄ (pH 7.5), 150 mM NaCl, 10 mM MgCl₂. To assess inhibitor-bound target protein (Set8), 20 μL/well (triplicate) reactions are set up into a Low 96-well Clear Multiplate PCR Plate (Bio-Rad). […] Sypro Orange™ at 5× (diluted in the above binding buffer from a stock concentration of 5000×) then added into the enzyme-peptide mixtures. The plate was covered with Microseal ‘B’ Film (Bio-Rad) and was equilibrated at 25° C. for 5 min. Experiments were conducted on a BioRad C1000 Thermal Cycler with CFX96 Real Time system. Heating was conducted using gradients from 25 to 95° C. (increasing 1° C. per minute).
For data set [7] the target is unchanged. The data set is described as follows: fluorescent polarization, fluorescein-labeled peptide with serially diluted recombinant Set8.
Description: Recombinant Set8 protein was serially diluted in a 384-well plate, followed by the addition of fluorescein-labeled inhibitor peptide in PBS buffer. The mixtures were incubated in the dark for 30 min prior to fluorescent polarization measurements at room temperature on an EnVision Multilabel Plate Reader (PerkinElmer) with the excitation set at 480 nm and emission at 535 nm. Binding curves were generated by fitting the binding data to a hyperbolic nonlinear regression model using Prism 3.0 (GraphPad software, Inc., San Diego, Calif.), which also produced the corresponding dissociation constants (Kd).

As to `C[C@@H](O)[C@H](N)C(=O)N[C@@H](Cc1c[nH]cn1)C(=O)N[C@@H](Cc1c[nH]cn1)C(=O)N[C@@H](Cc1c[nH]cn1)C(=O)N[C@@H](CCCCN)C(=O)N[C@@H](Cc1c[nH]cn1)C(=O)N1CCC[C@H]1C(=O)NCC(=O)NCC(=O)NCCCCCC(=O)NCC(=O)N[C@@H](CCCNC(=N)N)C(=O)N[C@@H](CCCCN)C(=O)N[C@@H](CCCCN)C(=O)N[C@@H](CCCNC(=N)N)C(=O)N[C@@H](CCCNC(=N)N)C(=O)N[C@@H](CCC(N)=O)C(=O)N[C@@H](CCCNC(=N)N)C(=O)N[C@@H](CCCNC(=N)N)C(=O)N[C@@H](CCCNC(=N)N)C(=O)N1CCC[C@H]1C(=O)N1CCC[C@H]1C(=O)N[C@@H](CCC(N)=O)C(=O)O` [KBL9-TAT, THHHKHPGG{6-aminohexanoic acid}GRKKRRQRRRPPQ] (H-THHHKHPGG[Ahx]GRKKRRQRRRPPQ-OH; N-terminus and C-terminus assumed), the IC50 with HCT 116 cells [1] (24 hr dose response 1 nM to 20 nM, tested in HCT 116 and HEK 293 cells, read-out: IC50 for loss of cell viability) is about 20 nM. Also, in the data set on HCT 116 cells [1] (HCT 116, 10 μM peptide, 24 hr, DMSO control = 100% viable), the “loss of cell viability” value is given as “up to 80%”. Further, the “concentration after which H4K20 histone lysine methylation decreased” value in data set [2] was “at least 2 nM”. Moreover, the “increase of sensitivity to doxorubicin treatment” value in the data set with HCT 116 cells [3] is listed as 360%. The BrdU incorporation entry in the data set with HCT 116 cells [4] was “decreased BrdU incorporation in a dose-responsive manner”.
On to THHHKHPGG [KBL9], for which the “inhibition of Set8 methyltransferase activity (H4K20 methylation) in dose-response” value against Set8 (50 nM Set8, 10 μM H4K20 peptide, 10 μM SAM) is given as “complete inhibition”. In addition, the “in vitro specificity among panel of related methyltransferases” value on Set8 (panel of recombinant Set6, Set7, Set8 enzymes) is listed as “in vitro specificity towards the inhibition of Set8 activity”.
For the molecule THHHKHPGG[Ahx]GRKKRRQRRRPPQ [KBL9-TAT], in data set [5], the “IC50, loss of cell viability (resazurin, 24 hr; HCT 116 and HEK 293 cells)” value was about 20 nM.
For the molecule THHHKHPGG (also called EP 18; EP18) [KBL9], the “Tm (° C.)” value in data set [6] came to 83.5 ° C.
As for THHHKHPGG (also: fluorescein label, position not given here, also called EP18) [fluorescein-labeled KBL9], in data set [7], the Kd was 33.5 nM and 33.3 nM.
On to THHHKHPGQ (also called EP 19) [KBL8], for which the “Tm (° C.)” value in data set [6] stood at 84.5 ° C.
The same measure, in the same setting: in the case of THHHKHPHK (also called EP 6) [KBL2] it was 85.8 ° C; in that of THHHKHPEQ (also called EP 7) [KBL13], 77.6 ° C.
On the same count and under the same terms, in the case of THHHKHPHQ (also called EP 8) [KBL15] it was 75.5 ° C; in that of THHHKHPGA (also called EP 22) [KBL6], 84.8 ° C.
Take SHHHKHPHG (also called EP 24) [KBL10]: the “Tm (° C.)” value in data set [6] came out at 82.8 ° C.
Still for that read-out and setting: in the case of THHHKHPGR (also called EP 21) [KBL4] it was 85 ° C.
In the case of THHH[Nle]HPGG (also called EP 43) [KBL3], in data set [6], the “Tm (° C.)” value was 85.6 ° C.
The same measure, in the same setting: in the case of THHH[Nle]HPGE (also called EP 48) [KBL11] it was 78.5 ° C.
The same measure, in the same setting: in the case of SHHH[Nle]HPGT (also called EP 45) [KBL7] it was 84.8 ° C; in that of SHHH[Nle]HPHG (also called EP 49) [KBL12], 78.3 ° C; in that of THHH[Nle]HPGA (also called EP 47) [KBL5], 85 ° C.
The same measure, in the same setting: in the case of THHH[Nle]HPEQ (also called EP 32) [KBL14] it was 81.5 ° C; in that of THHH[Nle]HPHQ (also called EP 33) [KBL1], 86.5 ° C.
